Laboratory results reported in paper PMC9126151.

Molecular target: non-translating 70S ribosome (E. coli) (UniProt P0AG44)
Experiment: FRET or BRET

Row | Substance | Kd [µM]
1 | methionine aminopeptidase MAP(H79A), TMR-labelled (from UniProt P0AE18 1-264) (enzyme) | 5.4
2 | peptide deformylase PDF(E133A), TMR-labelled (enzyme) | 7.3
